Data as given in patent US20050025760A1 (KEIO UNIVERSITY, published 2005).
Numbering of substitutions follows the chain as printed.

Tests used:
Assay in all cases: immunoprecipitation of point-mutated molecules (FIG. 5)
[1] = target: T1, Dsg3-M4 (human, UniProt P32926 50-615, E70V; S73F)
T1 construct: extracellular domain; also called point-mutated human Dsg3 molecule M4; not shown: His tag of vector pEVmod-His
T1 sequence (looked up): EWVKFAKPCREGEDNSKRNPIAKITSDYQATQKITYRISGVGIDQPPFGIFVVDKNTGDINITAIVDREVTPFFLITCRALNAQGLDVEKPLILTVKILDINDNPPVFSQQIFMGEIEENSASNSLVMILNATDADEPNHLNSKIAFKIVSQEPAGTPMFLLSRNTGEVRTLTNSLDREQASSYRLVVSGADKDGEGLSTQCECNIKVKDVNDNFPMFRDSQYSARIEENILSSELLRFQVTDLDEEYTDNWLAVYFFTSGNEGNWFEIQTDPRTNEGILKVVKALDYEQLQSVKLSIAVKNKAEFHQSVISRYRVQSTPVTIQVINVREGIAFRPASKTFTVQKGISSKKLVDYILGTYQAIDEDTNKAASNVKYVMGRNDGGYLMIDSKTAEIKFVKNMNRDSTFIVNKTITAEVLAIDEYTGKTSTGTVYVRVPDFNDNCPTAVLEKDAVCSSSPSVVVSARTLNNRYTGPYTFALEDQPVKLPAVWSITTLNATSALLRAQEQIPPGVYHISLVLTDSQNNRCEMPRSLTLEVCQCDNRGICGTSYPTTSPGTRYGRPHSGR

[2] = target: T2, Dsg3-M2 (human, UniProt P32926 50-615, T31N; K33Q; I34V)
T2 construct: extracellular domain; also called point-mutated human Dsg3 molecule M2; not shown: His tag of vector pEVmod-His
T2 sequence (looked up): T1 sequence (looked up) with T31N, K33Q, I34V, V70E, F73S

[3] = target: T3, Dsg3-M1 (human, UniProt P32926 50-615, T25H; Y28C; Q29A)
T3 construct: extracellular domain; Dsg3-specific residues changed to the Dsg1-specific ones; also called point-mutated human Dsg3 molecule M1; not shown: His tag of vector pEVmod-His
T3 sequence (looked up): T1 sequence (looked up) with T25H, Y28C, Q29A, V70E, F73S

[4] = target: T4, Dsg3-M7 (human, UniProt P32926 50-615, V3I; K7A; P8A)
T4 construct: extracellular domain; also called hDsg3-M7
T4 sequence (looked up): T1 sequence (looked up) with V3I, K7A, P8A, V70E, F73S

B1: anti-Dsg3 monoclonal antibody AK23 (antibody, mouse IgG1, V domains shown)
VH: QVQLQQSGTELVKPGASVKLSCKSSGYTFTSYWINWVKQRPGQGLEWIGNINPSNGGINYNEKFKSKATLTVDKSSSTAYMQLKSLTSEDSAVYYCARGGYDGYPWGQGTTVTVS
VL: DIQMTQSPKFLLVSAGDRVTITCKASQSVSYDVAWYQQKPGQSPKLLISYASNRYTGVPDRFTGSGYGSDFTFTISTVQTEDLAVYFCQQDYSSPWTFGGGTKLELKR
notes: Mouse IgG1 kappa hybridoma antibody
Question: Does B1 bind [1]?
Answer: Result: binds

Question: Does B1 bind [2]?
Answer: Result: binds

Question: Does B1 bind [3]?
Answer: Result: binds

Question: Does B1 bind [4]?
Answer: Result: no binding
